Laboratory results: article PMC10239819
One block for each substance: values may come before it.

Key:
Factor B (Homo sapiens) = Factor B (Homo sapiens) (UniProt P00751); settings: cited from earlier work
[1] = target: C3b prepared from human EDTA plasma (human)
[2] = target: C3b prepared from human EDTA plasma (human); remark: listed apart in the source
[3] = target: C3bB, the AP C3 pro-convertase (factor B complexed with C3b) (human)

Chain of C3b C3b (P01024 566-670): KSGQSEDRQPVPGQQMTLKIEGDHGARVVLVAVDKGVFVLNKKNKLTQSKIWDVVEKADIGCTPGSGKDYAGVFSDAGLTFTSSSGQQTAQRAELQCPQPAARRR
Chain of Factor B (Homo sapiens) (P00751 26-259): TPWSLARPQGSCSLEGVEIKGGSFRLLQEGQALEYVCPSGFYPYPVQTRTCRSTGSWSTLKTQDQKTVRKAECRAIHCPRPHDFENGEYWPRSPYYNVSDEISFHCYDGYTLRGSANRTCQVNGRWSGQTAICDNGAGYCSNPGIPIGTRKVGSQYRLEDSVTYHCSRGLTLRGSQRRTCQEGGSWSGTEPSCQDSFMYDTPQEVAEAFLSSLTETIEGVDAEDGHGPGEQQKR
Chain of tag-free recombinant human factor D (mature FD) (P00746 26-253): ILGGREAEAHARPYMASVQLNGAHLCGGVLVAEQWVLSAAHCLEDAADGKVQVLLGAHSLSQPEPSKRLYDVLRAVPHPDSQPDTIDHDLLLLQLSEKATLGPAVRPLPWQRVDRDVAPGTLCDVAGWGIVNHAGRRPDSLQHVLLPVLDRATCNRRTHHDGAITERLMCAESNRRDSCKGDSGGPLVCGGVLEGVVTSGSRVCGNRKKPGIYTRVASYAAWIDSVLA

Substance: C3b C3b (from UniProt P01024)
Kd (Factor B (Homo sapiens)): 1.4 µM

enhancement of the cleavage of FB by MASP-1cf (ratio of kobs/[E]T on C3bB and on free FB; SDS-PAGE densitometry of Bb, 37 °C) [1]: 100 fold
enhancement of the cleavage of FB by FD (ratio of kobs/[E]T on C3bB and on free FB; SDS-PAGE densitometry of Bb, 37 °C) [2]: 2e+07 fold
Substance: human, serum-derived, purified factor B (natural protein)

kobs/[E]T (estimate of kcat/KM) of the cleavage of C3bB (1.1 uM) by FD (0.25 nM), SDS-PAGE densitometry of Bb, 37 °C [3]: 6.5e+06 M⁻¹ s⁻¹
Substance: tag-free recombinant human factor D (mature FD) (from UniProt P00746 26-253) (enzyme)
